Reference: paper PMC8041783, “A positive charge region of Salmonella FliI is required for ATPase formation and efficient flagellar protein export” (Communications Biology, 2021)

B1: His-FliI(R26A/R27A/R33A/R76A/R93A) (enzyme)
chain: MTTRLTRWLTALDNFEAKMALLPAVAAYGRLTAATGLVLEATGLQLPLGATCIIERQDGPETKEVESEVVGFNGQALFLMPLEEVEGILPGAAVYARNGHGDGLQSGKQLPLGPALLGRVLDGGGKPLDGLPAPDTLETGALITPPFNPLQRTPIEHVLDTGVRAINALLTVGRGQRMGLFAGSGVGKSVLLGMMARYTRADVIVVGLIGERGREVKDFIENILGPDGRARSVVIAAPADVSPLLRMQGAAYATRIAEDFRDRGQHVLLIMDSLTRYAMAQREIALAIGEPPATKGYPPSVFAKLPALVERAGNGIHGGGSITAFYTVLTEGDDQQDPIADSARAILDGHIVLSRRLAEAGHYPAIDIEASISRAMTALITEQHYARVRLFKQLLSSFQRNRDLVSVGAYAKGSDPMLDKAITLWPQLEAFLQQGIFERADWEDSLQALDLIFPTV
notes: FliI of Salmonella enterica, UniProt P26465, with R26A/R27A/R33A/R76A/R93A; also called FliI-5A; His-FliI-5A; source: S. enterica SJW1368, pTrc99A-based plasmid co-expressing FliH; in lysate (Ni pull-down) and purified (Ni-NTA, then SEC to remove FliH)
B2: His-FliI(R26A/R27A/R33A) (enzyme)
chain: MTTRLTRWLTALDNFEAKMALLPAVAAYGRLTAATGLVLEATGLQLPLGATCIIERQDGPETKEVESEVVGFNGQRLFLMPLEEVEGILPGARVYARNGHGDGLQSGKQLPLGPALLGRVLDGGGKPLDGLPAPDTLETGALITPPFNPLQRTPIEHVLDTGVRAINALLTVGRGQRMGLFAGSGVGKSVLLGMMARYTRADVIVVGLIGERGREVKDFIENILGPDGRARSVVIAAPADVSPLLRMQGAAYATRIAEDFRDRGQHVLLIMDSLTRYAMAQREIALAIGEPPATKGYPPSVFAKLPALVERAGNGIHGGGSITAFYTVLTEGDDQQDPIADSARAILDGHIVLSRRLAEAGHYPAIDIEASISRAMTALITEQHYARVRLFKQLLSSFQRNRDLVSVGAYAKGSDPMLDKAITLWPQLEAFLQQGIFERADWEDSLQALDLIFPTV
notes: FliI of Salmonella enterica, UniProt P26465, with R26A/R27A/R33A; also called FliI-3A; His-FliI-3A; source: E. coli BL21 (DE3) Star, pET19b-based plasmid, purified (Ni-NTA, Superdex 200 SEC)
B3: His-FliI(R26A/R27A/R33A/R76A) (enzyme)
chain: MTTRLTRWLTALDNFEAKMALLPAVAAYGRLTAATGLVLEATGLQLPLGATCIIERQDGPETKEVESEVVGFNGQALFLMPLEEVEGILPGARVYARNGHGDGLQSGKQLPLGPALLGRVLDGGGKPLDGLPAPDTLETGALITPPFNPLQRTPIEHVLDTGVRAINALLTVGRGQRMGLFAGSGVGKSVLLGMMARYTRADVIVVGLIGERGREVKDFIENILGPDGRARSVVIAAPADVSPLLRMQGAAYATRIAEDFRDRGQHVLLIMDSLTRYAMAQREIALAIGEPPATKGYPPSVFAKLPALVERAGNGIHGGGSITAFYTVLTEGDDQQDPIADSARAILDGHIVLSRRLAEAGHYPAIDIEASISRAMTALITEQHYARVRLFKQLLSSFQRNRDLVSVGAYAKGSDPMLDKAITLWPQLEAFLQQGIFERADWEDSLQALDLIFPTV
notes: FliI of Salmonella enterica, UniProt P26465, with R26A/R27A/R33A/R76A; also called FliI-4A; His-FliI-4A; source: S. enterica SJW1368, pTrc99A-based plasmid co-expressing FliH; in lysate (Ni pull-down) and purified (Ni-NTA, then SEC to remove FliH)

Legend:
[1] = biological target: the molecule itself; test: negative-stain electron microscopy; purified FliI 1 μM in 50 mM Tris-HCl pH 8.0, 113 mM NaCl, 0.8 mM EDTA, 1 mM DTT with 5 mM MgCl2, 5 mM ADP, 5 mM AlCl3, 15 mM NaF, 20 min at room temperature; uranyl acetate stain; reference-free 2D class averages (RELION); monomers to hexameric ring
[2] = biological target: T1, GST-FliJ (Salmonella enterica, UniProt P0A1K1 1-147); test: pull-down; GST affinity chromatography: purified His-FliI or His-FliI-5A mixed with purified GST or GST fusions, dialysed overnight against PBS at 4 °C; Glutathione Sepharose 4B; wash 10 ml PBS; elution with 10 mM reduced glutathione; CBB and anti-FliI immunoblot; conditions: both partners purified
T1 construct: FliJ of Salmonella enterica; source: S. enterica SJW1368, purified (Glutathione Sepharose 4B)
T1 sequence (P0A1K1 whole entry, the tested form may be a part): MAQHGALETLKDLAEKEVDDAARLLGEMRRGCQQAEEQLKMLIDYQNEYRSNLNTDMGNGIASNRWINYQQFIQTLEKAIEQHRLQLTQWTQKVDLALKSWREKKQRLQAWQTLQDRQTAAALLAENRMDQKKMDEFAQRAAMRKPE

Binder	stoichiometry N [1]	binding result [2]
B1	6	binds
B2	~6	
B3	6	
